# Experimental data from the supplement of paper PMC10266784.
# B1: library; numbered along this chain (parent)
# chain: MAAAAAAAAEQQSSNGPVKKSMREKAVERRSVNKEHNSNFKAGYIPIDEDRLHKTGLRGRKGNLAICVIILLFILAVINLIITLVIWAVIRIGPNGCDSMEFHESGLLRFKQVSDMGVIHPLYKSTVGGRRNENLVITGNNQPIVFQQGTTKLSVENNKTSITSDIGMQFFDPRTQNILFSTDYETHEFHLPSGVKSLNVQKASTERITSNATSDLNIKVDGRAIVRGNEGVFIMGKTIEFHMGGNMELKAENSIILNGSVMVSTTRLPSSSSGDQLGSGDWVRYKLCMCADGTLFKVQVTSQNMGCQISDNPCGNTH
# Variants of: B1
# Test: SGCB cell-surface expression functional score (HA stain, bin4 vs bin1, normalised to synonymous) (log10 ratio); higher = more cell-surface SGCB (functional)
# Procedure, shortened: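 Using lentivirus at MOI <0.1, HA-tagged, YFP-fused human beta-sarcoglycan codon-saturation libraries were put into HEK293 cells with stable alpha-, gamma- and delta-sarcoglycan expression, in duplicate transductions. YFP-positive cells were collected by sorting 72 hours later, grown 5–7 days, stained on ice with Alexa Fluor 647 anti-HA, fixed, sorted into four 5% intensity bins and amplicon-sequenced. The functional score takes the median, across codons and transductions, of the log ratio of highest-bin to lowest-bin variant frequency. Within each section, synonymous variants were scaled to mean 0, SD 0.5.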
row,Variant,SGCB cell-surface expression functional score (log10)
1,MAAAAAAAAEQQSSNGPVKKSMREKAVERRSVNKEHNSNFKAGYIPIDEDRLHKTGLRGRKGNLAICVIILLFILAVINLIITLVIWAVIRIGPNGCDSMEFHESGLLRFKQVSDMGVIHPLYKSTVGGRRNENLVITGNNQPIVFQQGTTKLSVENNKTSITDDIGMQFFDPRTQNILFSTDYETHEFHLPSGVKSLNVQKASTERITSNATSDLNIKVDGRAIVRGNEGVFIMGKTIEFHMGGNMELKAENSIILNGSVMVSTTRLPSSSSGDQLGSGDWVRYKLCMCADGTLFKVQVTSQNMGCQISDNPCGNTH [S164D],0.11
2,MAAAAAAAAEQQSSNGPVKKSMREKAVERRSVNKEHNSNFKAGYIPIDEDRLHKTGLRGRKGNLAICVIILLFILAVINLIITLVIWAVIRIGPNGCDSMEFHESGLLRFKQVSDMGVIHPLYKSTVGGRRNENLVITGNNQPIVFQQGTTKLSVENNKTSITCDIGMQFFDPRTQNILFSTDYETHEFHLPSGVKSLNVQKASTERITSNATSDLNIKVDGRAIVRGNEGVFIMGKTIEFHMGGNMELKAENSIILNGSVMVSTTRLPSSSSGDQLGSGDWVRYKLCMCADGTLFKVQVTSQNMGCQISDNPCGNTH [S164C],-0.79
3,MAAAAAAAAEQQSSNGPVKKSMREKAVERRSVNKEHNSNFKAGYIPIDEDRLHKTGLRGRKGNLAICVIILLFILAVINLIITLVIWAVIRIGPNGCDSMEFHESGLLRFKQVSDMGVIHPLYKSTVGGRRNENLVITGNNQPIVFQQGTTKLSVENNKTSITEDIGMQFFDPRTQNILFSTDYETHEFHLPSGVKSLNVQKASTERITSNATSDLNIKVDGRAIVRGNEGVFIMGKTIEFHMGGNMELKAENSIILNGSVMVSTTRLPSSSSGDQLGSGDWVRYKLCMCADGTLFKVQVTSQNMGCQISDNPCGNTH [S164E],-0.83
4,MAAAAAAAAEQQSSNGPVKKSMREKAVERRSVNKEHNSNFKAGYIPIDEDRLHKTGLRGRKGNLAICVIILLFILAVINLIITLVIWAVIRIGPNGCDSMEFHESGLLRFKQVSDMGVIHPLYKSTVGGRRNENLVITGNNQPIVFQQGTTKLSVENNKTSITADIGMQFFDPRTQNILFSTDYETHEFHLPSGVKSLNVQKASTERITSNATSDLNIKVDGRAIVRGNEGVFIMGKTIEFHMGGNMELKAENSIILNGSVMVSTTRLPSSSSGDQLGSGDWVRYKLCMCADGTLFKVQVTSQNMGCQISDNPCGNTH [S164A],-0.39
5,MAAAAAAAAEQQSSNGPVKKSMREKAVERRSVNKEHNSNFKAGYIPIDEDRLHKTGLRGRKGNLAICVIILLFILAVINLIITLVIWAVIRIGPNGCDSMEFHESGLLRFKQVSDMGVIHPLYKSTVGGRRNENLVITGNNQPIVFQQGTTKLSVENNKTSIGSDIGMQFFDPRTQNILFSTDYETHEFHLPSGVKSLNVQKASTERITSNATSDLNIKVDGRAIVRGNEGVFIMGKTIEFHMGGNMELKAENSIILNGSVMVSTTRLPSSSSGDQLGSGDWVRYKLCMCADGTLFKVQVTSQNMGCQISDNPCGNTH [T163G],-1.5
6,MAAAAAAAAEQQSSNGPVKKSMREKAVERRSVNKEHNSNFKAGYIPIDEDRLHKTGLRGRKGNLAICVIILLFILAVINLIITLVIWAVIRIGPNGCDSMEFHESGLLRFKQVSDMGVIHPLYKSTVGGRRNENLVITGNNQPIVFQQGTTKLSVENNKTSIRSDIGMQFFDPRTQNILFSTDYETHEFHLPSGVKSLNVQKASTERITSNATSDLNIKVDGRAIVRGNEGVFIMGKTIEFHMGGNMELKAENSIILNGSVMVSTTRLPSSSSGDQLGSGDWVRYKLCMCADGTLFKVQVTSQNMGCQISDNPCGNTH [T163R],-0.05
7,MAAAAAAAAEQQSSNGPVKKSMREKAVERRSVNKEHNSNFKAGYIPIDEDRLHKTGLRGRKGNLAICVIILLFILAVINLIITLVIWAVIRIGPNGCDSMEFHESGLLRFKQVSDMGVIHPLYKSTVGGRRNENLVITGNNQPIVFQQGTTKLSVENNKTSIISDIGMQFFDPRTQNILFSTDYETHEFHLPSGVKSLNVQKASTERITSNATSDLNIKVDGRAIVRGNEGVFIMGKTIEFHMGGNMELKAENSIILNGSVMVSTTRLPSSSSGDQLGSGDWVRYKLCMCADGTLFKVQVTSQNMGCQISDNPCGNTH [T163I],0.32
8,MAAAAAAAAEQQSSNGPVKKSMREKAVERRSVNKEHNSNFKAGYIPIDEDRLHKTGLRGRKGNLAICVIILLFILAVINLIITLVIWAVIRIGPNGCDSMEFHESGLLRFKQVSDMGVIHPLYKSTVGGRRNENLVITGNNQPIVFQQGTTKLSVENNKTSIDSDIGMQFFDPRTQNILFSTDYETHEFHLPSGVKSLNVQKASTERITSNATSDLNIKVDGRAIVRGNEGVFIMGKTIEFHMGGNMELKAENSIILNGSVMVSTTRLPSSSSGDQLGSGDWVRYKLCMCADGTLFKVQVTSQNMGCQISDNPCGNTH [T163D],-1.08
9,MAAAAAAAAEQQSSNGPVKKSMREKAVERRSVNKEHNSNFKAGYIPIDEDRLHKTGLRGRKGNLAICVIILLFILAVINLIITLVIWAVIRIGPNGCDSMEFHESGLLRFKQVSDMGVIHPLYKSTVGGRRNENLVITGNNQPIVFQQGTTKLSVENNKTSISSDIGMQFFDPRTQNILFSTDYETHEFHLPSGVKSLNVQKASTERITSNATSDLNIKVDGRAIVRGNEGVFIMGKTIEFHMGGNMELKAENSIILNGSVMVSTTRLPSSSSGDQLGSGDWVRYKLCMCADGTLFKVQVTSQNMGCQISDNPCGNTH [T163S],-1.01
10,MAAAAAAAAEQQSSNGPVKKSMREKAVERRSVNKEHNSNFKAGYIPIDEDRLHKTGLRGRKGNLAICVIILLFILAVINLIITLVIWAVIRIGPNGCDSMEFHESGLLRFKQVSDMGVIHPLYKSTVGGRRNENLVITGNNQPIVFQQGTTKLSVENNKTSIKSDIGMQFFDPRTQNILFSTDYETHEFHLPSGVKSLNVQKASTERITSNATSDLNIKVDGRAIVRGNEGVFIMGKTIEFHMGGNMELKAENSIILNGSVMVSTTRLPSSSSGDQLGSGDWVRYKLCMCADGTLFKVQVTSQNMGCQISDNPCGNTH [T163K],-0.3
11,MAAAAAAAAEQQSSNGPVKKSMREKAVERRSVNKEHNSNFKAGYIPIDEDRLHKTGLRGRKGNLAICVIILLFILAVINLIITLVIWAVIRIGPNGCDSMEFHESGLLRFKQVSDMGVIHPLYKSTVGGRRNENLVITGNNQPIVFQQGTTKLSVENNKTSIHSDIGMQFFDPRTQNILFSTDYETHEFHLPSGVKSLNVQKASTERITSNATSDLNIKVDGRAIVRGNEGVFIMGKTIEFHMGGNMELKAENSIILNGSVMVSTTRLPSSSSGDQLGSGDWVRYKLCMCADGTLFKVQVTSQNMGCQISDNPCGNTH [T163H],-0.2
12,MAAAAAAAAEQQSSNGPVKKSMREKAVERRSVNKEHNSNFKAGYIPIDEDRLHKTGLRGRKGNLAICVIILLFILAVINLIITLVIWAVIRIGPNGCDSMEFHESGLLRFKQVSDMGVIHPLYKSTVGGRRNENLVITGNNQPIVFQQGTTKLSVENNKTSIMSDIGMQFFDPRTQNILFSTDYETHEFHLPSGVKSLNVQKASTERITSNATSDLNIKVDGRAIVRGNEGVFIMGKTIEFHMGGNMELKAENSIILNGSVMVSTTRLPSSSSGDQLGSGDWVRYKLCMCADGTLFKVQVTSQNMGCQISDNPCGNTH [T163M],-1.06
13,MAAAAAAAAEQQSSNGPVKKSMREKAVERRSVNKEHNSNFKAGYIPIDEDRLHKTGLRGRKGNLAICVIILLFILAVINLIITLVIWAVIRIGPNGCDSMEFHESGLLRFKQVSDMGVIHPLYKSTVGGRRNENLVITGNNQPIVFQQGTTKLSVENNKTSIYSDIGMQFFDPRTQNILFSTDYETHEFHLPSGVKSLNVQKASTERITSNATSDLNIKVDGRAIVRGNEGVFIMGKTIEFHMGGNMELKAENSIILNGSVMVSTTRLPSSSSGDQLGSGDWVRYKLCMCADGTLFKVQVTSQNMGCQISDNPCGNTH [T163Y],0.58
14,MAAAAAAAAEQQSSNGPVKKSMREKAVERRSVNKEHNSNFKAGYIPIDEDRLHKTGLRGRKGNLAICVIILLFILAVINLIITLVIWAVIRIGPNGCDSMEFHESGLLRFKQVSDMGVIHPLYKSTVGGRRNENLVITGNNQPIVFQQGTTKLSVENNKTSIFSDIGMQFFDPRTQNILFSTDYETHEFHLPSGVKSLNVQKASTERITSNATSDLNIKVDGRAIVRGNEGVFIMGKTIEFHMGGNMELKAENSIILNGSVMVSTTRLPSSSSGDQLGSGDWVRYKLCMCADGTLFKVQVTSQNMGCQISDNPCGNTH [T163F],-0.27
15,MAAAAAAAAEQQSSNGPVKKSMREKAVERRSVNKEHNSNFKAGYIPIDEDRLHKTGLRGRKGNLAICVIILLFILAVINLIITLVIWAVIRIGPNGCDSMEFHESGLLRFKQVSDMGVIHPLYKSTVGGRRNENLVITGNNQPIVFQQGTTKLSVENNKTSIPSDIGMQFFDPRTQNILFSTDYETHEFHLPSGVKSLNVQKASTERITSNATSDLNIKVDGRAIVRGNEGVFIMGKTIEFHMGGNMELKAENSIILNGSVMVSTTRLPSSSSGDQLGSGDWVRYKLCMCADGTLFKVQVTSQNMGCQISDNPCGNTH [T163P],-1.3
16,MAAAAAAAAEQQSSNGPVKKSMREKAVERRSVNKEHNSNFKAGYIPIDEDRLHKTGLRGRKGNLAICVIILLFILAVINLIITLVIWAVIRIGPNGCDSMEFHESGLLRFKQVSDMGVIHPLYKSTVGGRRNENLVITGNNQPIVFQQGTTKLSVENNKTSILSDIGMQFFDPRTQNILFSTDYETHEFHLPSGVKSLNVQKASTERITSNATSDLNIKVDGRAIVRGNEGVFIMGKTIEFHMGGNMELKAENSIILNGSVMVSTTRLPSSSSGDQLGSGDWVRYKLCMCADGTLFKVQVTSQNMGCQISDNPCGNTH [T163L],-0.56
17,MAAAAAAAAEQQSSNGPVKKSMREKAVERRSVNKEHNSNFKAGYIPIDEDRLHKTGLRGRKGNLAICVIILLFILAVINLIITLVIWAVIRIGPNGCDSMEFHESGLLRFKQVSDMGVIHPLYKSTVGGRRNENLVITGNNQPIVFQQGTTKLSVENNKTSIESDIGMQFFDPRTQNILFSTDYETHEFHLPSGVKSLNVQKASTERITSNATSDLNIKVDGRAIVRGNEGVFIMGKTIEFHMGGNMELKAENSIILNGSVMVSTTRLPSSSSGDQLGSGDWVRYKLCMCADGTLFKVQVTSQNMGCQISDNPCGNTH [T163E],-0.38
18,MAAAAAAAAEQQSSNGPVKKSMREKAVERRSVNKEHNSNFKAGYIPIDEDRLHKTGLRGRKGNLAICVIILLFILAVINLIITLVIWAVIRIGPNGCDSMEFHESGLLRFKQVSDMGVIHPLYKSTVGGRRNENLVITGNNQPIVFQQGTTKLSVENNKTSIVSDIGMQFFDPRTQNILFSTDYETHEFHLPSGVKSLNVQKASTERITSNATSDLNIKVDGRAIVRGNEGVFIMGKTIEFHMGGNMELKAENSIILNGSVMVSTTRLPSSSSGDQLGSGDWVRYKLCMCADGTLFKVQVTSQNMGCQISDNPCGNTH [T163V],0.25
19,MAAAAAAAAEQQSSNGPVKKSMREKAVERRSVNKEHNSNFKAGYIPIDEDRLHKTGLRGRKGNLAICVIILLFILAVINLIITLVIWAVIRIGPNGCDSMEFHESGLLRFKQVSDMGVIHPLYKSTVGGRRNENLVITGNNQPIVFQQGTTKLSVENNKTSIQSDIGMQFFDPRTQNILFSTDYETHEFHLPSGVKSLNVQKASTERITSNATSDLNIKVDGRAIVRGNEGVFIMGKTIEFHMGGNMELKAENSIILNGSVMVSTTRLPSSSSGDQLGSGDWVRYKLCMCADGTLFKVQVTSQNMGCQISDNPCGNTH [T163Q],0.21
